Laboratory results published in patent US20120277286A1, “COMPOSITIONS AND METHODS FOR THE TREATMENT OR PREVENTION OF MITOCHONDRIAL DISEASES” (The Government of the USA, as represented by the Secretary, …, priority 2009, published 2012).

Test system: HeLa cells
Experiment: Parkin colocalization with mitochondria scored by confocal microscopy
Format: cell-based
Conditions: for recruitment of mutant YFP-Parkin to depolarized mitochondria: CCCP 1 hr; for recruitment of mutant YFP-Parkin to mitochondria: 10 μM CCCP, 24 hours
Method: Cultured cells seeded in borosilicate chamber slides (Thermo Fisher Scientific) were transfected or cotransfected with YFP-Parkin, ECFP-Parkin, mCherry-Parkin, DsRed-Mito (Clontech Laboratories, Inc.), pcDNA3.1 (Invitrogen), vMIA, and/or Drp1K38A constructs using Fugene 6 (Roche). Parkin-myc was a gift from M. Cookson (National Institutes of Health, Bethesda, Md.). Cells were fixed 12-24 hours after transfection with 4% paraformaldehyde in PBS. Cells were stained with following primary antibodies: mouse monoclonal cytochrome c (BD), rabbit polyclonal Tom20 (Santa Cruz Biotechnology, Inc.), mouse monoclonal Parkin PRK8 (Santa Cruz Biotechnology, Inc.), rabbit polyclonal PMP70 (Invitrogen), and/or mouse monoclonal TRAP1 (Abcam); and with the following secondary antibodies: mouse and/or rabbit Alexa 488, 594, and 633 (Invitrogen). For assessment of mitochondrial membrane potential, cells were pulsed with 50 nM Mito-Tracker red (Invitrogen) for 15 min, washed, and incubated for an additional 10 minutes before fixation or imaging. For assessment of cell metabolic potential, cell nuclei were stained with Hoechst 33342 (Invitrogen).
Fixed cells and live cells in the FLIP assay were imaged using an inverted microscope (LSM510 Meta; Carl Zeiss, Inc.) with a 63×/1.4 oil DIC Plan Apo objective at 25° C. and 37° C., respectively. For the FLIP assay, a bleach region of interest (ROI) occupying approximately one eighth of the cell was positioned over a relatively mitochondria-free portion of the cytosol. Cells were alternately bleached (488 nm using a 30-mW argon laser at 75% power and 100% transmission for 150 iterations) and imaged (488 nm at 75% power and 2% transmission) for 10 minutes (—60 cycles over the length of the experiment). Two channel prebleach and postbleach images were obtained with 488 and 594 lasers to assess the position of mitochondria before and after bleaching. Circular ROIs with diameters of ˜1 and 5 μm, respectively, were placed over the mitochondria and cytosol of the target cell, and an ROI of 10 μm was placed over the control cell. Imaging of YFP-Parkin translocation in live HeLa cells was performed on a live cell imager system (UltraView LCI; PerkinElmer) at 35° C. with a 100×/1.45 α-Plan-Fluor objective.
Image contrast and brightness were adjusted in Photoshop (Adobe). Colocalization was assessed with line scans using MetaMorph (MDS Analytical Technologies). For analysis of mitochondrial membrane potential in cells, mitochondrial voxels in each image (the cytochrome c channel threshold was ≧400 au) were segregated into Parkin-positive (the YFP-Parkin channel threshold was ≧1,100 au) or Parkin-negative subsets, and MitoTracker intensity for each voxel was measured using Volocity software (Improvision). For each cell, the mean MitoTracker intensity per voxel was calculated for the Parkin-positive and Parkin-negative subsets. The difference in mean Mito-Tracker intensity between the Parkin-positive and Parkin-negative subsets was calculated using a paired t test. Western blotting HeLa cells stably expressing YFP-Parkin, HEK293 cells, and rat cortical neurons 2 days in vitro were harvested and fractionated as described previously (Karbowski et al., J. Cell Biol. 178: 71-84, 2007). Samples were run on SDS-PAGE and immunoblotted with the following antibodies: polyclonal rabbit anti-GFP (Invitrogen), mouse monoclonal anti-Parkin (PRK8), and mouse monoclonal anti-Porin 31HL (EMD).
Confocal microscopy of fixed samples, scoring of Parkin recruitment and Parkininduced mitophagy, and live cell imaging were performed as described previously (Narendra (2008) J Cell Biol 183: 795-803). Experiments in Mfn1/2 null cells were performed as described previously with minor modifications.
Confocal microscopy of fixed samples, scoring of Parkin recruitment and Parkin-induced mitophagy, and live cell imageing were performed as described previously (Narendra (2008) J Cell Biol 183: 795-803). […]

Row | Molecule | recruitment of mutant YFP-Parkin to depolarized mitochondria (HeLa) | further results
1 | T175, 217E: double phosphomimetic YFP-Parkin mutant (protein, UniProt O60260 1-465, looked up, variant T175E T217E, YFP fusion, double phosphomimetic YFP-Parkin mutant) E3 ubiquitin-protein ligase …: MIVFVRFNSSHGFPVEVDSDTSIFQLKEVVAKRQGVPADQLRVIFAGKELRNDWTVQNCDLDQQSIVHIVQRPWRKGQEMNATGGDDPRNAAGGCEREPQSLTRVDLSSSVLPGDSVGLAVILHTDSRKDSPPAGSPAGRSIYNSFYVYCKGPCQRVQPGKLRVQCSTCRQATLELTQGPSCWDDVLIPNRMSGECQSPHCPGTSAEFFFKCGAHPESDKETSVALHLIATNSRNITCITCTDVRSPVLVFQCNSRHVICLDCFHLYCVTRLNDRQFVHDPQLGYSLPCVAGCPNSLIKELHHFRILGEEQYNRYQQYGAEECVLQMGGVLCPRPGCGAGLLPEPDQRKVTCEGGNGLGCGFAFCRECKEAYHEGECSAVFEASGTTTQAYRVDERAAEQARWEAASKETIKKTTKPCPRCHVPVEKNGGCMHMKCPQPQCRLEWCWNCGCEWNRVCMGDHWFDV |  | spontaneous translocation of mutant YFP-Parkin to mitochondria (HeLa, without CCCP): did not translocate to mitochondria spontaneously
2 | C253Y: YFP-Parkin patient mutation in conserved RING cysteine (protein, UniProt O60260 1-465, looked up, variant C253Y, YFP fusion, YFP-Parkin patient mutation in conserved RING cysteine) E3 ubiquitin-protein ligase …: MIVFVRFNSSHGFPVEVDSDTSIFQLKEVVAKRQGVPADQLRVIFAGKELRNDWTVQNCDLDQQSIVHIVQRPWRKGQEMNATGGDDPRNAAGGCEREPQSLTRVDLSSSVLPGDSVGLAVILHTDSRKDSPPAGSPAGRSIYNSFYVYCKGPCQRVQPGKLRVQCSTCRQATLTLTQGPSCWDDVLIPNRMSGECQSPHCPGTSAEFFFKCGAHPTSDKETSVALHLIATNSRNITCITCTDVRSPVLVFQYNSRHVICLDCFHLYCVTRLNDRQFVHDPQLGYSLPCVAGCPNSLIKELHHFRILGEEQYNRYQQYGAEECVLQMGGVLCPRPGCGAGLLPEPDQRKVTCEGGNGLGCGFAFCRECKEAYHEGECSAVFEASGTTTQAYRVDERAAEQARWEAASKETIKKTTKPCPRCHVPVEKNGGCMHMKCPQPQCRLEWCWNCGCEWNRVCMGDHWFDV | completely disrupt | 
3 | C289G: YFP-Parkin patient mutation in conserved RING cysteine (protein, UniProt O60260 1-465, looked up, variant C289G, YFP fusion, YFP-Parkin patient mutation in conserved RING cysteine) E3 ubiquitin-protein ligase …: MIVFVRFNSSHGFPVEVDSDTSIFQLKEVVAKRQGVPADQLRVIFAGKELRNDWTVQNCDLDQQSIVHIVQRPWRKGQEMNATGGDDPRNAAGGCEREPQSLTRVDLSSSVLPGDSVGLAVILHTDSRKDSPPAGSPAGRSIYNSFYVYCKGPCQRVQPGKLRVQCSTCRQATLTLTQGPSCWDDVLIPNRMSGECQSPHCPGTSAEFFFKCGAHPTSDKETSVALHLIATNSRNITCITCTDVRSPVLVFQCNSRHVICLDCFHLYCVTRLNDRQFVHDPQLGYSLPGVAGCPNSLIKELHHFRILGEEQYNRYQQYGAEECVLQMGGVLCPRPGCGAGLLPEPDQRKVTCEGGNGLGCGFAFCRECKEAYHEGECSAVFEASGTTTQAYRVDERAAEQARWEAASKETIKKTTKPCPRCHVPVEKNGGCMHMKCPQPQCRLEWCWNCGCEWNRVCMGDHWFDV | completely disrupt | recruitment of mutant YFP-Parkin to mitochondria (HeLa): Mitochondrial recruitment was seen
4 | C212Y: YFP-Parkin patient mutation in conserved RING-like region (protein, UniProt O60260 1-465, looked up, variant C212Y, N-terminal YFP fusion, YFP-Parkin patient mutation in conserved RING-like region) E3 ubiquitin-protein ligase …: MIVFVRFNSSHGFPVEVDSDTSIFQLKEVVAKRQGVPADQLRVIFAGKELRNDWTVQNCDLDQQSIVHIVQRPWRKGQEMNATGGDDPRNAAGGCEREPQSLTRVDLSSSVLPGDSVGLAVILHTDSRKDSPPAGSPAGRSIYNSFYVYCKGPCQRVQPGKLRVQCSTCRQATLTLTQGPSCWDDVLIPNRMSGECQSPHCPGTSAEFFFKYGAHPTSDKETSVALHLIATNSRNITCITCTDVRSPVLVFQCNSRHVICLDCFHLYCVTRLNDRQFVHDPQLGYSLPCVAGCPNSLIKELHHFRILGEEQYNRYQQYGAEECVLQMGGVLCPRPGCGAGLLPEPDQRKVTCEGGNGLGCGFAFCRECKEAYHEGECSAVFEASGTTTQAYRVDERAAEQARWEAASKETIKKTTKPCPRCHVPVEKNGGCMHMKCPQPQCRLEWCWNCGCEWNRVCMGDHWFDV | blocked | 
5 | I44A: YFP-Parkin with engineered UBL mutation (protein, UniProt O60260 1-465, looked up, variant I44A, YFP fusion, YFP-Parkin with engineered UBL mutation) E3 ubiquitin-protein ligase …: MIVFVRFNSSHGFPVEVDSDTSIFQLKEVVAKRQGVPADQLRVAFAGKELRNDWTVQNCDLDQQSIVHIVQRPWRKGQEMNATGGDDPRNAAGGCEREPQSLTRVDLSSSVLPGDSVGLAVILHTDSRKDSPPAGSPAGRSIYNSFYVYCKGPCQRVQPGKLRVQCSTCRQATLTLTQGPSCWDDVLIPNRMSGECQSPHCPGTSAEFFFKCGAHPTSDKETSVALHLIATNSRNITCITCTDVRSPVLVFQCNSRHVICLDCFHLYCVTRLNDRQFVHDPQLGYSLPCVAGCPNSLIKELHHFRILGEEQYNRYQQYGAEECVLQMGGVLCPRPGCGAGLLPEPDQRKVTCEGGNGLGCGFAFCRECKEAYHEGECSAVFEASGTTTQAYRVDERAAEQARWEAASKETIKKTTKPCPRCHVPVEKNGGCMHMKCPQPQCRLEWCWNCGCEWNRVCMGDHWFDV | moderate deficit | 
6 | C441R: YFP-Parkin patient mutation in conserved RING cysteine (protein, UniProt O60260 1-465, looked up, variant C441R, YFP fusion, YFP-Parkin patient mutation in conserved RING cysteine) E3 ubiquitin-protein ligase …: MIVFVRFNSSHGFPVEVDSDTSIFQLKEVVAKRQGVPADQLRVIFAGKELRNDWTVQNCDLDQQSIVHIVQRPWRKGQEMNATGGDDPRNAAGGCEREPQSLTRVDLSSSVLPGDSVGLAVILHTDSRKDSPPAGSPAGRSIYNSFYVYCKGPCQRVQPGKLRVQCSTCRQATLTLTQGPSCWDDVLIPNRMSGECQSPHCPGTSAEFFFKCGAHPTSDKETSVALHLIATNSRNITCITCTDVRSPVLVFQCNSRHVICLDCFHLYCVTRLNDRQFVHDPQLGYSLPCVAGCPNSLIKELHHFRILGEEQYNRYQQYGAEECVLQMGGVLCPRPGCGAGLLPEPDQRKVTCEGGNGLGCGFAFCRECKEAYHEGECSAVFEASGTTTQAYRVDERAAEQARWEAASKETIKKTTKPCPRCHVPVEKNGGCMHMKCPQPQRRLEWCWNCGCEWNRVCMGDHWFDV | completely disrupt | recruitment of mutant YFP-Parkin to mitochondria (HeLa): Mitochondrial recruitment was seen
7 | Twinkle G575D: catalytically inactive mutant of mitochondrial DNA helicase Twinkle, Flag-tagged (protein, UniProt Q96RR1 32-684, looked up, variant G575D, Flag tag) Twinkle mtDNA helicase: APGPPRRRYRKETLQALDMPVLPVTATEIRQYLRGHGIPFQDGHSCLRALSPFAESSQLKGQTGVTTSFSLFIDKTTGHFLCMTSLAEGSWEDFQASVEGRGDGAREGFLLSKAPEFEDSEEVRRIWNRAIPLWELPDQEEVQLADTMFGLTKVTDDTLKRFSVRYLRPARSLVFPWFSPGGSGLRGLKLLEAKCQGDGVSYEETTIPRPSAYHNLFGLPLISRRDAEVVLTSRELDSLALNQSTGLPTLTLPRGTTCLPPALLPYLEQFRRIVFWLGDDLRSWEAAKLFARKLNPKRCFLVRPGDQQPRPLEALNGGFNLSRILRTALPAWHKSIVSFRQLREEVLGELSNVEQAAGLRWSRFPDLNRILKGHRKGELTVFTGPTGSGKTTFISEYALDLCSQGVNTLWGSFEISNVRLARVMLTQFAEGRLEDQLDKYDHWADRFEDLPLYFMTFHGQQSIRTVIDTMQHAVYVYDICHVIIDNLQFMMGHEQLSTDRIAAQDYIIGVFRKFATDNNCHVTLVIHPRKEDDDKELQTASIFDSAKASQEADNVLILQDRKLVTGPGKRYLQVSKNRFDGDVGVFPLEFNKNSLTFSIPPKNKARLKKIKDDTGPVAKKPSSGKKGATTQNSEICSGQAPTPDQPDTSKRSK |  | cells with Parkin localized to mitochondria (HeLa transfected with Flag-tagged Twinkle for 5 days): 13.1±2.3%
